Assay results from patent publication US20130253037A1 (PURDUE RESEARCH FOUNDATION, published 2013).

Biological target: T1, Aurora A kinase (endogenous, MDA-MB-231 cells) (human, UniProt O14965 1-403)
T1 sequence (looked up): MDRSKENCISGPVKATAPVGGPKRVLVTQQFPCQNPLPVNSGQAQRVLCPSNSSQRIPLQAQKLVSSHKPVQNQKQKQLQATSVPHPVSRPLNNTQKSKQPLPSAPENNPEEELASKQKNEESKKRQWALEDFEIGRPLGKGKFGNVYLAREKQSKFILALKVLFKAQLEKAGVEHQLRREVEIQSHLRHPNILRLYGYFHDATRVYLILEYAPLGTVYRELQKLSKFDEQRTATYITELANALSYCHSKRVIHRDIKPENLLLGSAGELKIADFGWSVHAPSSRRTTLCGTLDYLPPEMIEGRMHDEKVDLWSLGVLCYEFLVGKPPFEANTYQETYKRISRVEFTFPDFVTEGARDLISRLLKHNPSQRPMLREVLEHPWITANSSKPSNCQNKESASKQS
Experiment: HA-tagged truncated LIMK2 mutants expressed in MDA cells, isolated and analyzed for Aurora A binding
Method: LIMK2 contains two LIM domains (12-129), a PDZ domain (152-236), an S/P domain (240-328) and a kinase domain (331-601) (Scott and Olson (2007) J. Mol. Med. 85, 555-568). […] These mutants were transiently expressed in MDA cells, isolated and analyzed for Aurora A binding.
We next investigated whether association of LIM domains of LIMK2 is sufficient for Aurora A stabilization. […] After 30 h, cells were lysed, HA-tagged LIMK2 proteins were isolated and probed for Aurora A binding. […] After 30 h, cells were lysed, HA-tagged LIMK2 proteins were isolated and probed for Aurora A binding.

binding result: binds
B1: HA-tagged (1-145) LIMK2 (other, not shown: small tags and cut ends)
chain: MSALAGEDVWRCPGCGDHIAPSQIWYRTVNETWHGSCFRCSECQDSLTNWYYEKDGKLYCPKDYWGKFGEFCHGCSLLMTGPFMVAGEFKYHPECFACMSCKVIIEDGDAYALVQHATLYCGKCHNEVVLAPMFERLSTESVQEQ
notes: also called truncated LIMK2 mutant containing two LIM domains
